Data from IntAct's records for PubMed 31515488.
Values belong to the substance of their own block, whether it stands above or below them.

Key:
[1] = target: tri23_human TRIM23 (UniProt P36406)
[2] = target: FAM90A1 (UniProt Q86YD7)
[3] = target: sf3a3_human SF3A3 (UniProt Q12874)
[4] = target: adas_human AGPS (UniProt O00116)
[5] = target: phs_human PCBD1 (UniProt P61457)
[6] = target: zmat1_human ZMAT1 (UniProt Q5H9K5)
[7] = target: dpyl2_human DPYSL2 (UniProt Q16555)
[8] = target: T1, dmc1_human DMC1 (UniProt Q14565)
T1 sequence: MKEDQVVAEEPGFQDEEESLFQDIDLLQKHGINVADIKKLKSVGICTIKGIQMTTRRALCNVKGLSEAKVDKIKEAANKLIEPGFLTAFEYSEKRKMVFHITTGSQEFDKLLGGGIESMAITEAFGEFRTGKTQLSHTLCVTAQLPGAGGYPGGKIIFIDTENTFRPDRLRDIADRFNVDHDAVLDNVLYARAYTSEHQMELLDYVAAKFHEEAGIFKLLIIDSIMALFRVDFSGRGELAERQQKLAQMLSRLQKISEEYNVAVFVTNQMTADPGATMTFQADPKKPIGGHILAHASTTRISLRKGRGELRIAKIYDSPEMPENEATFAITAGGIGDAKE

[9] = target: cryaa_human CRYAA (UniProt P02489)
[10] = target: ei2ba_human EIF2B1 (UniProt Q14232)
[11] = target: T2, acy3_human ACY3 (UniProt Q96HD9)
T2 sequence: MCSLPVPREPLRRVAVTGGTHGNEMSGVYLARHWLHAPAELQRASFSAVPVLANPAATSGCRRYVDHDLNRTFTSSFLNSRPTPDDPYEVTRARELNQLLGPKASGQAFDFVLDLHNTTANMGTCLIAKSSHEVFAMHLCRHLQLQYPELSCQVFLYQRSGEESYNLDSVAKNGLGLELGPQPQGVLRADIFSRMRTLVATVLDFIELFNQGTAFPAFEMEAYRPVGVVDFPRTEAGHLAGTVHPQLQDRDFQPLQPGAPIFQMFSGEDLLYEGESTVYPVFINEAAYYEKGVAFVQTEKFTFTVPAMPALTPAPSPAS

[12] = target: ntaq1_human NTAQ1 (UniProt Q96HA8)
[13] = target: trip6_human TRIP6 (UniProt Q15654)
[14] = target: pak1_human PAK1 (UniProt Q13153)
[15] = target: rasf7_human RASSF7 (UniProt Q02833)
[16] = target: klhl2_human KLHL2 (UniProt O95198)
[17] = target: clip4_human CLIP4 (UniProt Q8N3C7)
[18] = target: sufu_human SUFU (UniProt Q9UMX1)
[19] = target: sufu_human SUFU (UniProt Q9UMX1); remark: listed apart in the source
[20] = target: tpp2_human TPP2 (UniProt P29144)
[21] = target: T3, cep55_human CEP55 (UniProt Q53EZ4)
T3 sequence: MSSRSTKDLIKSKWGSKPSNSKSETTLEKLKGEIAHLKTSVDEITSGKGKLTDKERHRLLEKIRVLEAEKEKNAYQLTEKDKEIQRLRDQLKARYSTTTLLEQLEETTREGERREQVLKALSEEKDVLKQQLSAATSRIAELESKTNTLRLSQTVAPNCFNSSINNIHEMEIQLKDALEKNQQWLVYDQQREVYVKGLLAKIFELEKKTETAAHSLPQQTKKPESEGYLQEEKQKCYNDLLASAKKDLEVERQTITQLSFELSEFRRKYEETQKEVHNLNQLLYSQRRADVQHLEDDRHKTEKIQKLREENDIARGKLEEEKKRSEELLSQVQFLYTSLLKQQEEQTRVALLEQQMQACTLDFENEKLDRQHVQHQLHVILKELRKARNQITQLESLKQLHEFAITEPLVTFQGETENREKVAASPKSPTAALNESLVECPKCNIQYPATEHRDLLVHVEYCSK

[22] = target: stk24_human STK24 (UniProt Q9Y6E0)
[23] = target: pp16a_human PPP1R16A (UniProt Q96I34)
[24] = target: echp_human EHHADH (UniProt Q08426)
[25] = target: dpolb_human POLB (UniProt P06746)
[26] = target: T4, rnps1_human RNPS1 (UniProt Q15287)
T4 sequence: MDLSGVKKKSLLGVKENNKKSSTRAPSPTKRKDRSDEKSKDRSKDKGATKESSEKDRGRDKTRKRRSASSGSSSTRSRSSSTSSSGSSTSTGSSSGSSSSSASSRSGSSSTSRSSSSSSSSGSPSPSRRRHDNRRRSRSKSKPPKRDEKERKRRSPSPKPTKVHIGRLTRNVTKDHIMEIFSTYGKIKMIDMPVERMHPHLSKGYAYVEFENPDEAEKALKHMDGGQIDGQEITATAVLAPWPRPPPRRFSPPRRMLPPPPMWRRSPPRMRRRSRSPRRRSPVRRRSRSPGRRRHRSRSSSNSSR

[27] = target: T5, lc7l2_human LUC7L2 (UniProt Q9Y383)
T5 sequence: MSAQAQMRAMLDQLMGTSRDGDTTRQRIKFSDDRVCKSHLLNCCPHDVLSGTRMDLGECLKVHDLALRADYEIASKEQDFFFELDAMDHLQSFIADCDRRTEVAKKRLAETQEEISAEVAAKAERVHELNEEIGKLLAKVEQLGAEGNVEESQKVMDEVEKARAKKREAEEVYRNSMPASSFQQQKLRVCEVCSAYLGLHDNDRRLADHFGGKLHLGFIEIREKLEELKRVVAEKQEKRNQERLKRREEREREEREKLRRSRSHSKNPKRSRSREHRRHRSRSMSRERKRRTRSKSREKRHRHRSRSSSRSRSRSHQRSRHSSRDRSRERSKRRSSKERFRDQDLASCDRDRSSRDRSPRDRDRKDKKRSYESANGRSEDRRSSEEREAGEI

[28] = target: zksc4_human ZKSCAN4 (UniProt Q969J2)
[29] = target: scel_human SCEL (UniProt O95171)
[30] = target: frih_human FTH1 (UniProt P02794)
[31] = target: gpt2l_human GPATCH2L (UniProt Q9NWQ4)
[32] = target: mfap1_human MFAP1 (UniProt P55081)
[33] = target: glrx3_human GLRX3 (UniProt O76003)
[34] = target: ndor1_human NDOR1 (UniProt Q9UHB4)
[35] = target: stk25_human STK25 (UniProt O00506)
[36] = target: cep63_human CEP63 (UniProt Q96MT8)
[37] = target: rby1a_human RBMY1A1 (UniProt P0DJD3)
[38] = target: nkap1_human NKAPD1 (UniProt Q6ZUT1)
[39] = target: aen_human AEN (UniProt Q8WTP8)
[40] = target: mdfi_human MDFI (UniProt Q99750)
[41] = target: kr107_human KRTAP10-7 (UniProt P60409)
[42] = target: zc4h2_human ZC4H2 (UniProt Q9NQZ6)
[43] = target: lpxn_human LPXN (UniProt O60711)

Chain of Zinc finger protein 223 (Homo sapiens), Q9UK11 S357A (Q9UK11 whole entry S357A): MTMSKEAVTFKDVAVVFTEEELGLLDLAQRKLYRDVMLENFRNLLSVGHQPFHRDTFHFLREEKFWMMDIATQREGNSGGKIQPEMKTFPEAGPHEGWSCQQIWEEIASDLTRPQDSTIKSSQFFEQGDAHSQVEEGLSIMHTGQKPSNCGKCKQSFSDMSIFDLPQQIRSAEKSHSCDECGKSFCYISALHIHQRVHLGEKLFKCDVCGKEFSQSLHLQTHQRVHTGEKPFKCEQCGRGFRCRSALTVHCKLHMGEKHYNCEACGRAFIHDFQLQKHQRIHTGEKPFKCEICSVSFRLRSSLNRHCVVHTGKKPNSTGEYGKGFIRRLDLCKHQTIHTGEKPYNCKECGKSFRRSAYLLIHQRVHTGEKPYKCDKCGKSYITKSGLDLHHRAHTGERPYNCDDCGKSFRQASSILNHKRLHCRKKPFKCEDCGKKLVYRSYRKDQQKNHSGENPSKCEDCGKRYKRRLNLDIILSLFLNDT
Chain of Cytoplasmic protein NCK2 (Homo sapiens), O43639 E125K (O43639 whole entry E125K): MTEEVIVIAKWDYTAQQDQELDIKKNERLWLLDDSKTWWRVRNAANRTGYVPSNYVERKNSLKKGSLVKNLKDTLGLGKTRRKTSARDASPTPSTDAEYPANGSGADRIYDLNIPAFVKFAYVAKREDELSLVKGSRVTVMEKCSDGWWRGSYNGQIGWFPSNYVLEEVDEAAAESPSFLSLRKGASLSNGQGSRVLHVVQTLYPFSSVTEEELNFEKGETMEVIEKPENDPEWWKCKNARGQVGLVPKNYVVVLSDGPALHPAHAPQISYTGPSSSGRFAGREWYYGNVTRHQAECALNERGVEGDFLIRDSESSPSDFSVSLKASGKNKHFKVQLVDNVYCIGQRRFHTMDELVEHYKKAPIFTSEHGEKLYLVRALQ
Chain of Zinc finger protein 317 (Homo sapiens), Q96PQ6 Q19H (Q96PQ6 whole entry Q19H): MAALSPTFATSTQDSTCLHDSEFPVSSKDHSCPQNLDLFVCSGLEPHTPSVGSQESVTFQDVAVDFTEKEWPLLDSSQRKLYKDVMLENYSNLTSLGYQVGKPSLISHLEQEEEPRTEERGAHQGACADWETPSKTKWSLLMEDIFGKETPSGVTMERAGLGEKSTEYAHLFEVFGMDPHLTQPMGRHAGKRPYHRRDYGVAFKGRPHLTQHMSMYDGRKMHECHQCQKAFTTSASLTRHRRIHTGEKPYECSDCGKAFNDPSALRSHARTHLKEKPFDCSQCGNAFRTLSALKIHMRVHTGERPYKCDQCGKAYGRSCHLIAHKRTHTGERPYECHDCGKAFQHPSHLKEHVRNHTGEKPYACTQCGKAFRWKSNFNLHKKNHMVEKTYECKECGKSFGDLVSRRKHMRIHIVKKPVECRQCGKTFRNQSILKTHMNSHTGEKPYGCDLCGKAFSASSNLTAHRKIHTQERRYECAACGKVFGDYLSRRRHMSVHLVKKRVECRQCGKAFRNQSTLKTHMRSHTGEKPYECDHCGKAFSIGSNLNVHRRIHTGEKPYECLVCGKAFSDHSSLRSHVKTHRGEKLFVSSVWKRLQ
Chain of FAM90A1 (Q86YD7 whole entry): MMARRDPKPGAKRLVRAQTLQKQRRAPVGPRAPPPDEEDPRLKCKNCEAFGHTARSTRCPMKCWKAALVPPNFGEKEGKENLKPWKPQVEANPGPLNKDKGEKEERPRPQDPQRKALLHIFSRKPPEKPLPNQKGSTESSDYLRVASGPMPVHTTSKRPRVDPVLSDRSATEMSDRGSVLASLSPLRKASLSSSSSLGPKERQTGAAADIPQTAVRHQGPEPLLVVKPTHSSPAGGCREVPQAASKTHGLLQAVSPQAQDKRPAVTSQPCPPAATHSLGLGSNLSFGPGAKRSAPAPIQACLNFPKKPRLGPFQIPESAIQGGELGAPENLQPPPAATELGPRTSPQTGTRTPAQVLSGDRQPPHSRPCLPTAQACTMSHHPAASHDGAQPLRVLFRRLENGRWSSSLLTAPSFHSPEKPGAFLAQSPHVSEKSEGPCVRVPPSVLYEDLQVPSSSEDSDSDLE
Chain of sufu_human SUFU (Q9UMX1 whole entry): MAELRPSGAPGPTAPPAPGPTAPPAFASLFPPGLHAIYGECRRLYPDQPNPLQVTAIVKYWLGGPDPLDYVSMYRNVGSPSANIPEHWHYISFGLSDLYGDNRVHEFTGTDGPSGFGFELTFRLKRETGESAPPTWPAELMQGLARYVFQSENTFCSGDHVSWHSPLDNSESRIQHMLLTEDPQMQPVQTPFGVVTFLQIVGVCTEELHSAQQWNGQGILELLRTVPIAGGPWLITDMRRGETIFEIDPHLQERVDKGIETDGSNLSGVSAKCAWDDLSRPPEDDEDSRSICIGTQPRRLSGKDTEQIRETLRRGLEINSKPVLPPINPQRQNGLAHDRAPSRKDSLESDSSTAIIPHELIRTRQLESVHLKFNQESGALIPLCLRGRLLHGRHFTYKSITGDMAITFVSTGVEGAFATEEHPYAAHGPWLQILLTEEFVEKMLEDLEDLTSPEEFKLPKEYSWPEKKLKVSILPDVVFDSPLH
Chain of pp16a_human PPP1R16A (Q96I34 whole entry): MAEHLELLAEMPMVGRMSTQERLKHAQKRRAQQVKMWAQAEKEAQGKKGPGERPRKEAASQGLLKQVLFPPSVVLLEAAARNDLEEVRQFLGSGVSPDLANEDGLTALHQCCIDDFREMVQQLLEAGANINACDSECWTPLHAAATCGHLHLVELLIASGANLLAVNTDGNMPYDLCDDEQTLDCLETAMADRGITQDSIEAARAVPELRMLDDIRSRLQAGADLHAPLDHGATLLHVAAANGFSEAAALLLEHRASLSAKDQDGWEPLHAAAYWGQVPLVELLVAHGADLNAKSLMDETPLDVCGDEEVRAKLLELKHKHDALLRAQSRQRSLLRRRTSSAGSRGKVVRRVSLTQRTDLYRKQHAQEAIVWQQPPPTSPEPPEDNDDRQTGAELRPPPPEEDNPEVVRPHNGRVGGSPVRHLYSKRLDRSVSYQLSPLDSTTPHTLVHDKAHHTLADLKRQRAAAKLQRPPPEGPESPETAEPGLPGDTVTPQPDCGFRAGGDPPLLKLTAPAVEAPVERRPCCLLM
Chain of Zinc finger protein 212 (Homo sapiens), Q9UDV6 E225K (Q9UDV6 whole entry E225K): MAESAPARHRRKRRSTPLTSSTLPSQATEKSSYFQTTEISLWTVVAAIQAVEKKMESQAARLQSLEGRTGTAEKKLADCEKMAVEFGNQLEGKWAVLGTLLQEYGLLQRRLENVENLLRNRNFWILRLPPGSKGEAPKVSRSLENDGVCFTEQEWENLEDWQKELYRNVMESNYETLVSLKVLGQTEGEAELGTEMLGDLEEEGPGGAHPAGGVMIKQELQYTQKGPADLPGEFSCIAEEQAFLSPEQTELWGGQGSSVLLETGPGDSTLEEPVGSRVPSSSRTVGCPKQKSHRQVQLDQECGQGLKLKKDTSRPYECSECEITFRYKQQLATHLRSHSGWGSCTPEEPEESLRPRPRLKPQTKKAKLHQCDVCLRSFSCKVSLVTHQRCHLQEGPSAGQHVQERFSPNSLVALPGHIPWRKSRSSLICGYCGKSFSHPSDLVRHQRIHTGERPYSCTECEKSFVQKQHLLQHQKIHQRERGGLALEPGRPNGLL
Chain of sf3a3_human SF3A3 (Q12874 whole entry): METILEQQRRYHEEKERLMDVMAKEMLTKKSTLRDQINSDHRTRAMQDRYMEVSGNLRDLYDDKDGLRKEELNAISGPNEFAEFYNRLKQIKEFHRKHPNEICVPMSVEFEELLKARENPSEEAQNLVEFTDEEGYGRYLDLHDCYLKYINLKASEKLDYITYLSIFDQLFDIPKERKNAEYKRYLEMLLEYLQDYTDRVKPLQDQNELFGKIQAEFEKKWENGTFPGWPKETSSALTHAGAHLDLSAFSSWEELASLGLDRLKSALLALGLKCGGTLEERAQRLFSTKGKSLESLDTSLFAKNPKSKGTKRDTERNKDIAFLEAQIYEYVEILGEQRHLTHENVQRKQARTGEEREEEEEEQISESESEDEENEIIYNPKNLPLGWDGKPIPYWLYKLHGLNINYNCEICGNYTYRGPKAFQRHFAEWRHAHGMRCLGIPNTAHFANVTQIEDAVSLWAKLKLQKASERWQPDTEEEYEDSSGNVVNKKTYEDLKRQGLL
Chain of Zinc finger protein 114 (Homo sapiens), Q8NC26 V207A (Q8NC26 whole entry V207A): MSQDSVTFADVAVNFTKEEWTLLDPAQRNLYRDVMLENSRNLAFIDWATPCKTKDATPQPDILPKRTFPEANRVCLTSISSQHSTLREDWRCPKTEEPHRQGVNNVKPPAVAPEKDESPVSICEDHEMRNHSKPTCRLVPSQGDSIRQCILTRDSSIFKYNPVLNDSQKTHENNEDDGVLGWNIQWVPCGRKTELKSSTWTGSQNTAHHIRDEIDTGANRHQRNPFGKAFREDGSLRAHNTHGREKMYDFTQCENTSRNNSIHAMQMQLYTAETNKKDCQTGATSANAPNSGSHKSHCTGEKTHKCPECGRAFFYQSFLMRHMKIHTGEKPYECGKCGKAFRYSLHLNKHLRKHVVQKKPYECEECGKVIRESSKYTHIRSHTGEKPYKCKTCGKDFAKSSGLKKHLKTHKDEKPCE
Chain of Zinc finger protein 212 (Homo sapiens), Q9UDV6 H293Y (Q9UDV6 whole entry H293Y): as the sequence (Q9UDV6 whole entry E225K) above, with K225E, H293Y counted along it
Chain of phs_human PCBD1 (P61457 whole entry): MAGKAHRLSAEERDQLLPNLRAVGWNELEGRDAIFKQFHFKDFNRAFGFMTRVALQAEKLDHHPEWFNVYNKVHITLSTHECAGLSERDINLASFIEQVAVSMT

Substance: Golgi reassembly-stacking protein 1 (Homo sapiens), Q9BQQ3 T425M
effect of a mutation on the interaction [4]: with no effect

Substance: Argininosuccinate lyase (Homo sapiens), P04424 R12Q
effect of a mutation on the interaction [12]: with no effect

Substance: Zinc finger protein 212 (Homo sapiens), Q9UDV6 E225K
effect of a mutation on the interaction [2]: with no effect
effect of a mutation on the interaction [3]: with no effect

Substance: Zinc finger protein 263 (Homo sapiens), O14978 C310S
effect of a mutation on the interaction [19]: with no effect

Substance: DNA polymerase beta (Homo sapiens) (from UniProt P06746) P242R
effect of a mutation on the interaction [20]: with no effect

Substance: Ribosomal RNA small subunit methyltransferase NEP1 (Homo sapiens) (from UniProt Q92979) A34G
effect of a mutation on the interaction [21]: with no effect

Substance: Programmed cell death protein 10 (Homo sapiens), Q9BUL8 M20V
effect of a mutation on the interaction [22]: with no effect

Substance: Tripeptidyl-peptidase 2 (Homo sapiens), P29144 T998R
effect of a mutation on the interaction [23]: with no effect
effect of a mutation on the interaction [24]: with no effect
effect of a mutation on the interaction [25]: with no effect

Substance: RNA-binding protein FXR2 (Homo sapiens), P51116 R483Q
effect of a mutation on the interaction [29]: with no effect
effect of a mutation on the interaction [30]: with no effect

Substance: Zinc finger protein 398 (Homo sapiens), Q8TD17 V252M
effect of a mutation on the interaction [31]: with no effect
effect of a mutation on the interaction [32]: with no effect

Substance: Anamorsin (Homo sapiens), Q6FI81 A34E
effect of a mutation on the interaction [33]: with no effect
effect of a mutation on the interaction [34]: disrupting interaction strength

Substance: Programmed cell death protein 10 (Homo sapiens), Q9BUL8 M92V
effect of a mutation on the interaction [35]: with no effect

Substance: Histone-lysine N-methyltransferase EZH2 (Homo sapiens), Q15910 M439T
effect of a mutation on the interaction [36]: disrupting interaction strength

Substance: Zinc finger protein 223 (Homo sapiens), Q9UK11 S357A
effect of a mutation on the interaction [40]: with no effect
effect of a mutation on the interaction [41]: with no effect
effect of a mutation on the interaction [42]: with no effect

Results, then the substance that gave them:

effect of a mutation on the interaction [1]: with no effect
Substance: FAD synthase (Homo sapiens), Q8NFF5 R437H

effect of a mutation on the interaction [2]: with no effect
effect of a mutation on the interaction [3]: with no effect
Substance: Zinc finger protein 212 (Homo sapiens), Q9UDV6 H293Y

effect of a mutation on the interaction [5]: with no effect
effect of a mutation on the interaction [6]: with no effect
effect of a mutation on the interaction [7]: with no effect
effect of a mutation on the interaction [8]: with no effect
effect of a mutation on the interaction [9]: with no effect
effect of a mutation on the interaction [10]: with no effect
effect of a mutation on the interaction [11]: with no effect
Substance: Golgi reassembly-stacking protein 2 (Homo sapiens) (from UniProt Q9H8Y8) T415M

effect of a mutation on the interaction [13]: with no effect
effect of a mutation on the interaction [14]: with no effect
effect of a mutation on the interaction [15]: with no effect
Substance: Cytoplasmic protein NCK2 (Homo sapiens), O43639 E125K

effect of a mutation on the interaction [16]: with no effect
effect of a mutation on the interaction [17]: with no effect
Substance: Zinc finger protein 114 (Homo sapiens), Q8NC26 V207A

effect of a mutation on the interaction [18]: with no effect
Substance: Zinc finger protein 747 (Homo sapiens), Q9BV97 G28R

effect of a mutation on the interaction [23]: with no effect
effect of a mutation on the interaction [24]: with no effect
effect of a mutation on the interaction [25]: with no effect
Substance: Tripeptidyl-peptidase 2 (Homo sapiens), P29144 V1121I

effect of a mutation on the interaction [26]: with no effect
effect of a mutation on the interaction [27]: with no effect
Substance: Serine/arginine-rich splicing factor 6 (Homo sapiens) (from UniProt Q13247-1) R145Q

effect of a mutation on the interaction [28]: with no effect
Substance: Calcium-binding protein 5 (Homo sapiens), Q9NP86 E140K

effect of a mutation on the interaction [37]: with no effect
effect of a mutation on the interaction [38]: with no effect
effect of a mutation on the interaction [39]: with no effect
Substance: Zinc finger protein 317 (Homo sapiens), Q96PQ6 Q19H

effect of a mutation on the interaction [43]: with no effect
Substance: Homeobox protein Hox-C9 (Homo sapiens), P31274 A122V
